In the DeepSol protein solubility set:

test: soluble on expression in E. coli; label from the status in PepcDB or PDB records

Question: With “MDVHIDNQVLSGLGTPLLVHLFVPDTVMAELCPNRVPNCEGAWCQTLFSDRTGLTRVCRVFAARGMLPGRPSHRGTFTSVPVYCDEGLPELYNPFHVAALRFYDEGGLVGELQIYYLSLFEGAKRALTDGHLIREASGVQESAAAMQPIPIDPGPPGGAGIEHMPVAAAQVEHPKTYDLKQILLEITQEENRGEQRLGHAGSPALCLGLRLRAGAETKAAAETSVSKHHPALENPSNIRGSAGGEGGGGRAGTGGTVGVGSGALSRVPVSFSKTRRAIRESRALVRGIAHIFSPHALYVVTYPELSAQGRLHRMTAVTHASPATDLAEVSILGAPEREFRFLISVALRISASFREKLAMQAWTAQQEIPVVIPTSYSRIYKNSDLIREAFFTVQTRVSWESCWVKATISNAPKTPDACLWIDSHPLYEEGASAWGKVIDSRPPGGLVGAASQLVALGTDGHCVHLATTSDGQAFLVLPGGFVIKGQLALTPEERGYILARHGIRREQ” as the sequence, how does the “soluble on expression in E. coli” value read?
Answer: not soluble

Question: For “MSLAARQTVTDVDSFSKELMTASPDLLGSMVKAFAEALMGAEVDGICNAEYGEISPERVNRRNGYRAREWDTRAGTIELAVPKLRQGSYFPEWLLTRRRRAEQALISVVATSYLLGVSTRRVDKLVEQLGVAHISKSQVSVLAKHLDTQVEAFRSRPLDAGPYRFVQADALTMKVREDGRVINVHCLLAVGVNGDGHREILGLDVVSSEDGAGWLAFFRGLVARGLSGVRLVTSDAHRGLVNAIGSTLPGASWQRCRTHYLRDLLTMTPKSSQPWVATLVRTVFDQADANEVGGQFDRVTEALSEKLPKAADHLSGAKADLLAFTTYPREVWRQIWSSNPQERLNKEIRRRTDVVGIFPDRDAIIRLVGAVLAEQHDEWIETHRYFGLEILAKVDATNKKSDTPEIGVTEGHHHHHH”, which “soluble on expression in E. coli” value is on record?
Answer: soluble

Question: For “MGSDKIHHHHHHAAGLVVNDNDLRNDLAWLSDRGVIHLSLSTWPLSQEEIARALKKAKPSYSSEQVVLARINQRLSALKADFRVTGYTSTDQPGTPQGFGQTQPADSSLGLAFNNSGEWWDVHLQGNVEGGERISNGSRFNANGAYGAVKFWNQWLSFGQIPQWWGPGYEGSLIRGDAMRPMTGFLMQRAEQAAPETWWLRWVGPWQYQISASQMNQYTAVPHAKIIGGRFTFSPFQSLELGASRIMQWGGEGRPESFSSFWDGFTGHDNTGTDNEPGNQLAGFDFKFKLEPTLGWPVSFYGQMVGEDESGYLPSANMFLGGVEGHHGWGKDAVNWYVEAHDTRTNMSRTNYSYTHHIYKDGYYQQGYPLGDAMGGDGQLIAGKVELITEDNQRWSTRLVYAKVNPENQSINKAFPHADTLKGVQLGWSGDVYQSVRLNTSLWYTNANNSDSDDVGASAGIEIPFSL”, which “soluble on expression in E. coli” value is on record?
Answer: not soluble

Question: With “MITLHTNFGDIKIQLNFEKAPVTSANFEQYCREGFYDNTLFHRVIDGFMIQGGGMTSGLREKETRDPIRNEANNGLSNKVGTIAMARTMDPHSASSQFFINVNNNTFLDFRSESRDGWGYCVFGEVVEGMDIVNKIKGVSTGSYGMHQDVPLEEVVITGTTIEA” as the sequence, how does the “soluble on expression in E. coli” value read?
Answer: not soluble

Question: Which “soluble on expression in E. coli” value does the source give for “SSPSLLEPLLAMGFPVHTALKALAATGRKTAEEALAWLHDHCNDPSLDDPI” here?
Answer: soluble

Question: For “MSLYKIDFSKGLVPAILQDNQTKQVLMLGYMNQEAFDKTIEDGVVCFYSRSKQRLWTKGETSGHTQLVKDIHVDCDNDTILIDVIPNGPTCHTGSQSCFNTEVPFSVQTLAQTVQDSAQSNNEKSYTKYLLTEGIEKITKKYGEEAFEVVIEAIKGDKKAFVSEVADELYHLFVLMHALGVDFSEIEAELARRHHKRNNFKGERQNIEQWEGHHHHHH”, which “soluble on expression in E. coli” value is on record?
Answer: soluble

Question: Which “soluble on expression in E. coli” value does the source give for “SRRLLNDSTGRIYQRVGKEGEKLKEEPQDLDLVWPPRLNSSAEAPQSLHPSSRGVWNELPPQSGQFSGQYGTRSRTFQSQPHPTTSSNGMVVNKHSEGSHGGELPVVNSSAGSNCCTCNCQSTLQAILQELKTMRKLMQIQAVGTQNRQQPPISLICSQRTAVSRKRNKKKKVPPKTVEPLTVKQKPSGSEMEKKSVVASELSALQAAEHTSPEESRVLGFGIVLESPSSDPEVQLAEGFDVFMPKSQLDSILSNYTRSGSLLFRKLVCAFFDDKTLANSLPNGKRKRGLNDNRKGLDQNIVGAIKVFTEKYCTANHVDKLPGPRDWVQILQDQIKLARRRLKRGSEIADSDERLDGIALPPTVV” here?
Answer: not soluble

Question: Which “soluble on expression in E. coli” value does the source give for “MRLSISLGESPCISSLKVRGFTASPQTPNLSISVIVTAFNRREYLRYALLSLKNQEADSFEVVVSKNFSDRVTDKFCSENGFINVTTDSSRSGERVYDALRSSHGDFILFLDDDDIFRRTKISRVSDVISKRNVAFYRNAIFPVTVDGVIATHYQPQMHDPLYLILERVSDVRLLHRHACDFNSSSMGISRSMLDSHASDLRKINLAVDTFYFALAASSRMPLFCDSMIESIYRIMPSSTSRDLRDFYLFSRFERSFLRRYVPDLERIAEIVEGSPAKPVIGRMLSLYKILQYVFEEDRVNLKPSPLDRVRFLLERPFPYSLLYSRIFRDAAMRSEFRRENRIVYGNADRRRRLEHHHHHH” here?
Answer: soluble

Question: Which “soluble on expression in E. coli” value does the source give for “MSLTVNNEISKAFSKHADDYERVAKVQKEIGSRLFERLQYLKIAPRRILDLGCGPGFFSKELALLYPKAQIVGMDLSFAMLEQARKKQGWRRKWPLVSADMQKMPFATGAFDLVFANQVIHWSSSLGMVFRELNRVMNVNGCLMFTTLGPDTFKELQTAWSAANQYAHVNEFVDMHDIGDCLIAEHFMDPVIDMELLSIHYETLPQLLLALKTQGVRNINPKRNHGLTGKSAWKQFEAQYATMRTTTGKYPLTYEVVYGQAWKGAQRKMEQGEGHHHHHH” here?
Answer: not soluble

Question: Which “soluble on expression in E. coli” value does the source give for “MGSDKIHHHHHHMNVAILLAAGKGERMSENVPKQFLEIEGRMLFEYPLSTFLKSEAIDGVVIVTRREWFEVVEKRVFHEKVLGIVEGGDTRSQSVRSALEFLEKFSPSYVLVHDSARPFLRKKHVSEVLRRARETGAATLALKNSDALVRVENDRIEYIPRKGVYRILTPQAFSYEILKKAHENGGEWADDTEPVQKLGVKIALVEGDPLCFKVTFKEDLELARIIAREWERIP” here?
Answer: soluble

Question: For “MSLETYIHEVVAPKLVGRDPLEIDRISKDLTGYLGFRSTGAEMRGNSAVDIGLWDLFGKATNLPIAQLLGGFSRREIRTYNTCAGNTYMRDAKGQQTANYGIGGPRRDYDDLNGFLERADELAEDLLSEGITAMKIWPFDIAAEKSGGQYISGPDLRKALEPFEKIRKRVGDRIDIMVEFHSMWQLTPAIQIARALEPYATFWHEDPIKMDSLSSLKRYAAASRAPLCASETLATRWAFRDLMETDAAGVVMLDLSWCGGISEAKKISTMAEAWHLPVAPHDCTGPVVLAASTHLSLNAPNALVQESVRAYYKTWYADLTTQLPTVTNGMITIPPGAGHGVDLAPDLDRKFEVSRRSSQIEDEGHHHHHH”, which “soluble on expression in E. coli” value is on record?
Answer: not soluble

Question: With “MFSILLPTWNNLALLKLCVQSIRAHSAHDHQIIVHVNDGSDGTLAWVREQGLDHTHSPGNVGICLAVNESAMLARHDYIVYLNDDMVCCPGWDTALLRRLDTLDTDLFMLSGTMIEPVDTGNPCVVVGNYGRDADTFDAARLLADVPRLARGDWLGATWPPTLVHRRWWFKLGGYSSELTPGMSSDNDFSMKLWHAGCRIFLGAGDSLVYHFQCKSTGKVKKNDGRRQFLNKWGLSQSTFDKYFLRRGTPAGADWRLPEPELTSALRWDLRRNDLTRRLRPGVPVLLEHHHHHH” as the sequence, how does the “soluble on expression in E. coli” value read?
Answer: soluble

Question: With “GSYAEGQRKRRNTIHEFKKSAKTTLIKIDPALKIKTKKVNTADQCANRCTRNKGLPFTCKAFVFDKARKQCLWFPFNSMSSGVKKEFGHEFDLYENKDYIRNCIIGEGESYKGTVSITKSGIKCQPWSSMIPHEHSFLPSSYRGKDLQENYCRNPRGEEGGPWCFTSNPEVRYEVCDIPQCSEVECMTANGESYRGLMDHTESGKICQRWDHQTPHRHKFLPERYPDKGFDDNYCRNPDGQPRPWCYTLDPHTRWEYCAIKTCA” as the sequence, how does the “soluble on expression in E. coli” value read?
Answer: soluble

Question: Which “soluble on expression in E. coli” value does the source give for “MNSLVRRSAQQLSLWRTYCIKHNASEAASPGRNAGRPNYEEFIGRHQRQAQCSIVVQVSSEKSYEELYNYCSSFGSIMGAHHYCVRQDETLHYILLEYATSDEAAAAIGAGVTNGELSGVPVRSPFLWFRAAGGGRRSPKLVANTAPALLSLDGTRQVDQRHLLGLLRGAADIEEQVQQLYEHTRLNELGIRMRFLAALQVQQAIAGMFPAAQAQPFGSSVNGFGRMGCDLDLILRFDSDMGAKIPLEAAVPSRLVYHTKENLSNGRSQTQRHMECFGDMLHLFLPGVCHVRRILQARVPIIKYHHEHLDLEVDLSMSNLTGFYMSELLYMFGEMDPRVRPLTFTIRRWAQTCGLTNPSPGRWISNFSLTCLVMFFLQQLRQPILPTIGALAKAAEPGDSRVTEDGINCTFTRNVDRLGFRSRNQSSLSELLLQFFEFYSQFDFHNRAISLNEGKPLSKPDHSAMYIVNPLEQLLNVSKNVSLEECERLRIEVRNAAWVLESEVENASVPEGDGQELSCGLLNLFKHPEKAVIRPNMFFKPRMVEVSDLFEQKEAGATSSSTPPTPAITYKSASVRQQVQSIKAATRSELKQLRGSGSSVPTSSPNNRRRS” here?
Answer: not soluble

Question: Which “soluble on expression in E. coli” value does the source give for “GMTKLPATSDIYISFFMFTTNLQPDNLDYRRIVVAHIKKLQRFGYSGFEFPIAPGLPENYAQDLENYTNLRHYLDSEGLENVKISTNVGATRTFDPSSNYPEQRQEALEYLKSRVDITAALGGEIMMGPIVIPYGVFPTTDFNEPIWSDELQEHLKVRYANAQPILDKLGEYAEIKKVKLAIEPITHWETPGPNKLSQLIEFLKGVKSKQVGVVIDSAHEILDGEGPEIFKTQVEYLAQQGRLHYVQVSPPDRGALHTSWLPWKSFLTPIVKVYDGPIAVEIFNAIPAFTNSLRLTRRKFWIPDEDPPNQYPNAYDIADEAIKVTRKELKKIGSK” here?
Answer: soluble

Question: With “MNAVHFGAGNIGRGFIGEILAKNGFHITFVDVNETIIQALKERKSYTIELADASHQQINVENVTGLNNMTEPEKVVEAIAEADLVTTAIGPNILPRIAELIAQGIDARAEANCQKPLDIIACENMIGGSTFLAEEVAKYLKNPAYAEQWIGFPDAAVDRIVPLQKHEDPLFVQVEPFCEWVIDDTNRKAKEIQLEGVHYVAD” as the sequence, how does the “soluble on expression in E. coli” value read?
Answer: not soluble

Question: With “VNAYDVLKRHHTVLKGLGRKVGEAPVNSEERHVLFDEMLIELDIHFRIEDDLYYPALSAAGKPITGTHAEHRQVVDQLATLLRTPQRAPGYEEEWNVFRTVLEAHADVEERDMIPAPTPVHITDAELEELGDKMAARIEQLRGSPLYTLRTKGKADLLKAI” as the sequence, how does the “soluble on expression in E. coli” value read?
Answer: not soluble

Question: For “MTIKIALLGFGTVAKGIPYLLKENQHKLLSLEGEDIVIDKVLVRDNESRQRFINQGFTYNFVTEINTILQDSQIDIVVELMGGIEPAKTYLSQALGFGKHIVTANKDLIALHGKELMDLADARGLALFYEGAVAGGIPILRTLSHSFASDKMTRLLGILNGTSNFMLTKMFEEGWSYEQALKKAQELGYAESDPTNDVEGIDTAYKATILSQFGFGMPIDFDDVNYKGISSIRSEDVEVAQEMGFAIKLVADLRETPTGISVDVSPTLISQKHPLAAVNHVMNAVFIESIGIGQSLFYGPGAGQNPTATSVLADIIDISRSIRSQIKIKPMNTYHCPCRLSMQSDIFNEYYLAISLRNAEDSDTLGRYFEQENIGLKNVIEKALGDKQQEIYVLTDEVSQEKITQFIEEFPESGVIQLINVFKVIGGLEHHHHHH”, which “soluble on expression in E. coli” value is on record?
Answer: soluble

Question: For “MAMPEIDALLGLSFCLYFFDNKQHKLPHIHVKYGSYELIIAIETGECLEGYLPNKQRKRAENHILEHREQLMVMWNKAVNGENPGKLGDLCLEHHHHHH”, which “soluble on expression in E. coli” value is on record?
Answer: not soluble
